# Measurements published in patent US20040132033.
# Experiments:
# Assay in all cases: EMSA
# SBS#1140 ZFP (synthetic) = settings: 100 mM KCl, 1 mM MgCl2, 100 uM ZnCl2, pH 7.5, RT
# SBS#1750 ZFP (synthetic) = settings: 100 mM KCl, 1 mM MgCl2, 100 uM ZnCl2, pH 7.5, RT
# SBS#1760 ZFP (synthetic) = settings: 100 mM KCl, 1 mM MgCl2, 100 uM ZnCl2, pH 7.5, RT
# SBS#1764 ZFP (synthetic) = settings: 100 mM KCl, 1 mM MgCl2, 100 uM ZnCl2, pH 7.5, RT
# SBS#1755 ZFP (synthetic) = settings: 100 mM KCl, 1 mM MgCl2, 100 uM ZnCl2, pH 7.5, RT
# SBS#779 ZFP (synthetic) = settings: 100 mM KCl, 1 mM MgCl2, 100 uM ZnCl2, pH 7.5, RT
# SBS#1756 ZFP (synthetic) = settings: 100 mM KCl, 1 mM MgCl2, 100 uM ZnCl2, pH 7.5, RT
# SBS#1770 ZFP (synthetic) = settings: target also SEQ 111; 100 mM KCl, 1 mM MgCl2, 100 uM ZnCl2, pH 7.5, RT
# SBS#781 ZFP (synthetic) = settings: 100 mM KCl, 1 mM MgCl2, 100 uM ZnCl2, pH 7.5, RT
# SBS#519 ZFP (synthetic) = settings: listed twice (-343 and -329, same 9 bp, SEQ 21 and 23); 100 mM KCl, 1 mM MgCl2, 100 uM ZnCl2, pH 7.5, RT
# SBS#386 ZFP (synthetic) = settings: 100 mM KCl, 1 mM MgCl2, 100 uM ZnCl2, pH 7.5, RT
# SBS#705 ZFP (synthetic) = settings: 100 mM KCl, 1 mM MgCl2, 100 uM ZnCl2, pH 7.5, RT
# SBS#713 ZFP (synthetic) = settings: 100 mM KCl, 1 mM MgCl2, 100 uM ZnCl2, pH 7.5, RT
# SBS#1757 ZFP (synthetic) = settings: 100 mM KCl, 1 mM MgCl2, 100 uM ZnCl2, pH 7.5, RT
# SBS#1772 ZFP (synthetic) = settings: 100 mM KCl, 1 mM MgCl2, 100 uM ZnCl2, pH 7.5, RT
sequence,measurement,setting,value
AAGGGTGCG (double strand) [SBS#1140 target (-287)],Kd,SBS#1140 ZFP (synthetic),0.3 nM
ATGGAGGGC (double strand) [SBS#1750 target (-147)],Kd,SBS#1750 ZFP (synthetic),0.011 nM
ATGGCCGGG (double strand) [SBS#1760 target (-299)],Kd,SBS#1760 ZFP (synthetic),0.42 nM
CAAGTGGGT (double strand) [SBS#1764 target (-286)],Kd,SBS#1764 ZFP (synthetic),0.11 nM
CGGGAGGCC (double strand) [SBS#1755 target (-319)],Kd,SBS#1755 ZFP (synthetic),0.006 nM
CGGGGAGCA (double strand) [SBS#779 target (-356)],Kd,SBS#779 ZFP (synthetic),0.5 nM
CGGGGAGGA (double strand) [SBS#1756/1770 target (-342)],Kd,SBS#1756 ZFP (synthetic),0.125 nM
same,Kd,SBS#1770 ZFP (synthetic),0.01 nM
GGGGAGCAG (double strand) [SBS#781 target (-357)],Kd,SBS#781 ZFP (synthetic),4.25 nM
GGGGAGGAG (double strand) [SBS#519 target (-343 and -329)],Kd,SBS#519 ZFP (synthetic),1.12 nM
GGGGCGGAG (double strand) [SBS#386 target (-111)],Kd,SBS#386 ZFP (synthetic),0.4 nM
GGGGCGGGG (double strand) [SBS#705 target (-201)],Kd,SBS#705 ZFP (synthetic),0.01 nM
GGTGAGGAG (double strand) [SBS#713 target (-127)],Kd,SBS#713 ZFP (synthetic),0.15 nM
GGTGCGGAG (double strand) [SBS#1757 target (-290)],Kd,SBS#1757 ZFP (synthetic),0.05 nM
GTGGGTGAT (double strand) [SBS#1772 target (-277)],Kd,SBS#1772 ZFP (synthetic),0.006 nM
